This test concerns the target T1, VACV G3-ectodomain, tag-free (G3-Ecto) (vaccinia virus (VACV), UniProt P68458 22-111).
T1 sequence: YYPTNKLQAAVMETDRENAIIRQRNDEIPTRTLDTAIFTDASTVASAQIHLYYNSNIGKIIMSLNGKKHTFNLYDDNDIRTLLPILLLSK
Description: crystal structure. The following applies: both partners purified.

From publication PMC9848366, “Crystal structure of vaccinia virus G3/L5 sub-complex reveals a novel fold with extended inter-molecule interactions conserved among orthopoxviruses” (Emerging Microbes & Infections, 2023) come the findings set out here.

B1: VACV L5-ectodomain, tag-free (L5-Ecto) (domain or fragment)
chain: NMFFMPKRKIPDPIDRLRRANLACEDDKLMIYGLPWMTTQTSALSINSKPIVYKDCAKLLRSINGSQPVSLNDVLRR
On to B1, for which the binding result was “binds”.
